Results from article PMC13265731, “In vitro reconstitution defines the mechanistic basis of HSET motor activity regulation by IntraFlagellar Transport proteins” (Communications Biology, 2026).

B2: GFP-HSET (full-length N-terminal hexa-histidine-tagged GFP-HSET) (natural protein, human, UniProt Q9BW19 1-673, looked up)
chain: MDPQRSPLLEVKGNIELKRPLIKAPSQLPLSGSRLKRRPDQMEDGLEPEKKRTRGLGATTKITTSHPRVPSLTTVPQTQGQTTAQKVSKKTGPRCSTAIATGLKNQKPVPAVPVQKSGTSGVPPMAGGKKPSKRPAWDLKGQLCDLNAELKRCRERTQTLDQENQQLQDQLRDAQQQVKALGTERTTLEGHLAKVQAQAEQGQQELKNLRACVLELEERLSTQEGLVQELQKKQVELQEERRGLMSQLEEKERRLQTSEAALSSSQAEVASLRQETVAQAALLTEREERLHGLEMERRRLHNQLQELKGNIRVFCRVRPVLPGEPTPPPGLLLFPSGPGGPSDPPTRLSLSRSDERRGTLSGAPAPPTRHDFSFDRVFPPGSGQDEVFEEIAMLVQSALDGYPVCIFAYGQTGSGKTFTMEGGPGGDPQLEGLIPRALRHLFSVAQELSGQGWTYSFVASYVEIYNETVRDLLATGTRKGQGGECEIRRAGPGSEELTVTNARYVPVSCEKEVDALLHLARQNRAVARTAQNERSSRSHSVFQLQISGEHSSRGLQCGAPLSLVDLAGSERLDPGLALGPGERERLRETQAINSSLSTLGLVIMALSNKESHVPYRNSKLTYLLQNSLGGSAKMLMFVNISPLEENVSESLNSLRFASKVNQCVIGTAQANRK
notes: HSET (KIFC1), human mitotic kinesin-14, full length; Dimer by mass photometry (measured 232 ± 34 kDa, expected 210 kDa for the GFP-HSET dimer); also called KIFC1; kinesin-14; source: Sf9 insect cells, baculovirus, purified (Ni-NTA); not shown: GFP, N-terminal, kept

Tests used:
[1] = target: B2; test: mass photometry; in solution; pre-incubated 30 min at 30 °C (1.2 µM GFP-HSET, 2.4 µM IFT52/70) in 20 mM Na-Hepes pH 7.2, 150 mM NaCl, 2 mM MgCl2, 10% glycerol, 5 mM β-mercaptoethanol; measured at 2.5 nM GFP-HSET and 5 nM IFT52/70, alone or mixed, 25 °C; settings: both partners purified
[2] = target: B2; test: cell-based or functional assay
[3] = target: the molecule itself; test: mass photometry; in solution; pre-incubated 30 min at 30 °C (1.2 µM GFP-HSET, 2.4 µM IFT52/70) in 20 mM Na-Hepes pH 7.2, 150 mM NaCl, 2 mM MgCl2, 10% glycerol, 5 mM β-mercaptoethanol; measured at 2.5 nM GFP-HSET and 5 nM IFT52/70, alone or mixed, 25 °C

B1: IFT52/70 complex (SNAP-IFT52/SNAP-IFT70) (complex)
chain 1: MEKELRSTILFNAYKKEVFTTNTGYKSLQKRLRSNWKIQSLKDEITSEKLIGVKLWITAGPREKFTAAEFEVLKKYLDSGGDILVMLGEGGESRFDTNINFLLEEYGIMVNNDAVVRNVYYKYFHPKEALVSDGVLNREISRAAGKAVPGVIDEENSGNNAQALTFVYPFGATLSVMKPAVAVLSTGSVCFPLNRPILAFYHSKNQGFGKLAVLGSCHMFSDQYLDKEENSKIMDVVFQWLTTGDIHLNQIDAEDPEISDYTMVPDTATLSEQLRVCLQEGDENPRDFTTLFDLSIYQLDTTCLPKVIKAHEELNVKHEPLQLVQPQFEMPLPALQPAVFPPSFRELPPPPLELFDLDETFSSEKARLAQITNKCTDEDLEFYVRKCGDILGVTSKLPKDQQDAKHILEHIFFQVVEFKKLNQEAH
chain 2: MAGLSGAQIPDGEFTAVVYRLIRNARYAEAVQLLGGELQRSPRSRAGLSLLGYCYYRLQEFALAAECYEQLGQLHPELEQYRLYQAQALYKACLYAEATRVAFLLLDNPAYHSRVLRLQAAIKYSEGDLPGSRSLVEQLPSREGGEESGGENETDGQINLGCLLYKEGQYEAACSKFFAALQASGYQPDLSYNLALAYYSSRQYASALKHIAEIIERGIRQHPELGVGMTTEGIDVRSVGNTLVLHQTALVEAFNLKAAIEYQLRNYEAAQEALTDMPPRAEEELDPVTLHNQALMNMDARPTEGFEKLQFLLQQNPFPPETFGNLLLLYCKYEYFDLAADVLAENAHLIYKFLTPYLYDFLDAVITCQTAPEEAFIKLDGLAGMLTEVLRKLTIQVQEARHNRDDEAIKKAVNEYDETMEKYIPVLMAQAKIYWNLENYPMVEKIFRKSVEFCNDHDVWKLNVAHVLFMQENKYKEAIGFYEPIVKKHYDNILNVSAIVLANLCVSYIMTSQNEEAEELMRKIEKEEEQLSYDDPDKKMYHLCIVNLVIGTLYCAKGNYDFGISRVIKSLEPYNKKLGTDTWYYAKRCFLSLLENMSKHTIMLRDSVIQECVQFLEHCELHGRNIPAVIEQPLEEERMHVGKNTVTYESRQLKALIYEIIGWNI
modifications: SNAP-Surface Alexa Fluor 647 on the SNAP tag | SNAP-Surface Alexa Fluor 647 on the SNAP tag
- stoichiometry N [1]: 2 IFT52/70 dimers per GFP-HSET dimer
- GFP-HSET (5 nM) fluorescence at microtubule minus ends relative to the lattice, with IFT52/70 (10 nM) (1.38 versus 2.34) [2]: 1.7 fold

Binder: B2
- stoichiometry N [3]: 2
